Data on three molecules can be found in US20150025225A1 (SHIONOGI, published 2015).

The target in assay [1] is T1, Baboon EL-C2 tag (baboon, UniProt Q9Y5X9 21-500 (human entry), limits assumed).
T1 construct: used as heparin extract of transfected HEK293F cells; also called baboon EL heparin extract
T1 chain: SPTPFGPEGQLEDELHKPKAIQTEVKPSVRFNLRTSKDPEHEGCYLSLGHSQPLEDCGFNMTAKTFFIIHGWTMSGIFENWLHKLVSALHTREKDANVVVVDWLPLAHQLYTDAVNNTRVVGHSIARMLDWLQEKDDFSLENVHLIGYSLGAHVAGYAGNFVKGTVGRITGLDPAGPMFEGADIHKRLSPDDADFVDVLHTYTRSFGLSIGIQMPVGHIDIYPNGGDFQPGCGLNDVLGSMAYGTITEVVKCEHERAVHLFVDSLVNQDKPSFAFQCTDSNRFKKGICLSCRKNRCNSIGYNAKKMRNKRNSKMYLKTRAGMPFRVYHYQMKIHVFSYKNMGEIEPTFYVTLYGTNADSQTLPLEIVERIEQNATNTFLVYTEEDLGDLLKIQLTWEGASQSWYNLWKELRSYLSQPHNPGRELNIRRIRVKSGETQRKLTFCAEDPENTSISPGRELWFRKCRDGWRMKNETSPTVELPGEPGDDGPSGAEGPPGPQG
The assay is described as follows: Biacore SPR; EL heparin extract captured by anti-C2-tag antibody on CM5, antibody as analyte, bivalent fit. Here is the method: (§1) The binding affinities of anti-EL antibodies were measured using Biacore. Anti-C2-tag antibody was immobilized on a sensor chip CM5 (GE HealthCare) using amine-coupling and baboon EL heparin extract or cynomolgus monkey heparin extract diluted with HBS-P (GE Healthcare) was added and EL were captured on the sensor chip. Then anti-EL antibodies diluted with HBS-P were added and the binding affinities were calculated by bivalent fitting of BIAevaluation software (FIG. 9A-G).
On the technique in general: Surface plasmon resonance follows binding to a sensor surface in real time, without labels.

For assay [2], the target named is T2, cynomolgus monkey EL-C2 tag (cynomolgus monkey, UniProt Q9Y5X9 21-500 (human entry), limits assumed).
T2 construct: used as heparin extract of transfected HEK293F cells; also called cynomolgus EL
T2 chain: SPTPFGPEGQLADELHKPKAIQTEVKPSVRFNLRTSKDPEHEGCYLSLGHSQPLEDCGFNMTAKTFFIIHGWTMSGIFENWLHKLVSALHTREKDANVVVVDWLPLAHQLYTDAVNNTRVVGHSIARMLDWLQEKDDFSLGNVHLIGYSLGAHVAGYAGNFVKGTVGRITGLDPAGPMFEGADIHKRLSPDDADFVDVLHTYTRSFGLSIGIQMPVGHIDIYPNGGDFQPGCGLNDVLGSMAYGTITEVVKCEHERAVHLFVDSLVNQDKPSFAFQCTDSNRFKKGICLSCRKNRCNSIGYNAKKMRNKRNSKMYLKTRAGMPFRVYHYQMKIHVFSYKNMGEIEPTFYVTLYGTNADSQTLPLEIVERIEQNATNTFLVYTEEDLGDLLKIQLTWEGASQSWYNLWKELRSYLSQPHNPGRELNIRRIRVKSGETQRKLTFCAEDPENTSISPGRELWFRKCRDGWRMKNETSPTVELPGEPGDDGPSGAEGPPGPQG
The description is as above. The protocol:
as §1

The target in assay [3] is T3, human EL-411-459 fragment (human).
T3 construct: Used as HEK293 lysate
T3 chain: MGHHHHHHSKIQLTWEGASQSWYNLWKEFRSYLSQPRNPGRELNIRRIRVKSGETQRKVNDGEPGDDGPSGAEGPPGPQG
The assay is described as follows: sandwich ELISA with human EL fragment lysate, as Example 10. Background: ELISA stands for enzyme-linked immunosorbent assay.

In assay [4] the target is T1, Baboon EL-C2 tag. In words: Biacore SPR; EL captured by anti-C2-tag antibody, antibody as analyte, bivalent fit; column head prints nM, kd/ka gives M. Here is the method: as §1
Assay [5] has as its target T2, cynomolgus monkey EL-C2 tag. The description is as above. Here is the method:
as §1

Assay [6] has as its target T1, Baboon EL-C2 tag. The assay is described as follows: cell-based or functional assay.
The target in assay [7] is T4, rabbit EL-C2 tag (rabbit).
T4 chain: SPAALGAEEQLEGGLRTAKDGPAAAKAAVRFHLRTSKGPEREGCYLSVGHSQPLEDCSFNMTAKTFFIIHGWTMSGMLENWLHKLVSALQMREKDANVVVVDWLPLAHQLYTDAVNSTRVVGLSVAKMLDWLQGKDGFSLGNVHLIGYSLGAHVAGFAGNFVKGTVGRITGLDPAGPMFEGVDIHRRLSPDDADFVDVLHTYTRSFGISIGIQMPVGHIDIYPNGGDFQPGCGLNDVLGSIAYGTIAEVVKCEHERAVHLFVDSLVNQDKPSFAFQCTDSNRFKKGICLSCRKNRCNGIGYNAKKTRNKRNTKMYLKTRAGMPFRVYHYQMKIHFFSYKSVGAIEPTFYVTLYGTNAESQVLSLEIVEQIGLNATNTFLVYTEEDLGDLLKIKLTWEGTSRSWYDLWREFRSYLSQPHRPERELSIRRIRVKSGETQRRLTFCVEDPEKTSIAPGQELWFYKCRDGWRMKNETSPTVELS
In words: cell-based or functional assay.

Assay [8] concerns the target T2, cynomolgus monkey EL-C2 tag. The assay is described as follows: cell-based or functional assay.
For assay [9], the target named is T5, human EL[331-459]-mouse EL-C2 tag (human/mouse chimera, UniProt Q9WVG5 21-500 (mouse entry)).
T5 chain: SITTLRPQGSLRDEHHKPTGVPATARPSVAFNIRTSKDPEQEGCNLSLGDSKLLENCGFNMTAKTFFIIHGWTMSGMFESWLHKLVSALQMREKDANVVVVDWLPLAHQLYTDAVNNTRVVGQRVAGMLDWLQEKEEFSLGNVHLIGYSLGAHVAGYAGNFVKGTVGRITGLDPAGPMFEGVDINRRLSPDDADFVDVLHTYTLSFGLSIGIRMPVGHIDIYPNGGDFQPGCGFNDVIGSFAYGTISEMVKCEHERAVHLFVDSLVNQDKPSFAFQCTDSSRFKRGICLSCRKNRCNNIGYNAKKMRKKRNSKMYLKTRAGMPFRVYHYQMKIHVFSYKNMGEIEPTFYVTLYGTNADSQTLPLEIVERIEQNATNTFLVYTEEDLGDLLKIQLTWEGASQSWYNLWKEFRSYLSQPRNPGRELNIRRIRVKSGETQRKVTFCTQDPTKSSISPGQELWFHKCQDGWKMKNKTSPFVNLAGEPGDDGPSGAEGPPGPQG
The assay is described as follows: cell-based or functional assay.

Assay [10] deals with T1, Baboon EL-C2 tag. The assay is described as follows: ELISA-type titration, A450 against antibody concentration; protocol not described in the text.
For assay [11], the target named is T4, rabbit EL-C2 tag. Described as above.
Assay [12] concerns the target T2, cynomolgus monkey EL-C2 tag. Described as above.
For assay [13], the target named is T5, human EL[331-459]-mouse EL-C2 tag. The description is as above.
Assay [14] deals with T4, rabbit EL-C2 tag. The description is as above.
Assay [15] addresses T2, cynomolgus monkey EL-C2 tag. The assay is described as above.
For assay [16], the target named is T1, Baboon EL-C2 tag. Described as above.
For assay [17], the target named is T4, rabbit EL-C2 tag. The description is as above.
Assay [18] deals with T2, cynomolgus monkey EL-C2 tag. The assay is described as above.

Like-named read-outs stand apart in the source and are kept apart here.

B1: 25E4 antibody (antibody, IgG2b, V domains shown)
VH: QVALKESGPGILQPSQTLSLTCSFSGFSLSTSGMGVGWIRQPSGKGLEWLAHIWWHGNKYYSTALKSRLTISKDTSNNQVFLKIASVDTADTATYYCARISDGYPLDYWGQGTSVTVSS
VL: DIQMTQSPSSLSASLGGKVTITCKASQDINKYIVWYQQKPGKGPRLLIHYTSTLQPGFPSRFSGSGSGRDYSLSITNLEPEDIATYYCLQYDNLLWTFGGGTKLEIK
Usually koff stands for a measure of how fast the partners let go of each other. The term kon denotes the second-order rate constant of association. For orientation: EC50 (read off the curve) means the concentration giving half of the maximal effect. Turning to B1, the koff turned out to be 0.00016 s⁻¹ in the assay with Baboon EL-C2 tag [1] and 9.4e-05 s⁻¹ in assay [2]. The kon turned out to be 250000 M⁻¹ s⁻¹ with Baboon EL-C2 tag [1] and 160000 M⁻¹ s⁻¹ in [2]. In addition, the binding result in assay [3] is listed as “no binding”. In addition, the Kd with Baboon EL-C2 tag [4] came out at 0.64 nM; in assay [5] it was 0.59 nM. Also, the “Neutralizing activity_IC50” value came out at 5.7 nM with Baboon EL-C2 tag [6], 85 nM with rabbit EL-C2 tag [7], 4.2 nM in [8] and 6.9 nM in [9]. Also, the “EC50 (read off the curve)” value is about 20 ng/mL with Baboon EL-C2 tag [10], about 10 ng/mL with rabbit EL-C2 tag [11], about 7 ng/mL in assay [12] and about 20 ng/mL in assay [13].

B2: 16A11 antibody (antibody, IgG1, V domains shown)
VH: QVTLKESGPGILQPSQTLSLTCSFSGFSLSTSGMGVGWVRQPSGKGLEWLAHIWWNDYYYYKTALKSRLTISKDTSNNQVFLKIASVDTVDTATYYCARMAPGTPFPSWGQGTLVTVSA
VL: DIQMTQSPSSLSASLGGKVTITCKASQDINRYIAWYQHKPGKGPRLLIHYTSTLQPGIPSRFSGSGSGRDYSFSISNLEPEDIATYYCLQYDILLWTFGGGTKLEIK
As for B2, the off-rate constant (koff) with Baboon EL-C2 tag [1] turned out to be 0.00012 s⁻¹; in [2], 0.00039 s⁻¹. Further, the figures for the kon (in the assay with Baboon EL-C2 tag [1]; in [2]) were 120000 M⁻¹ s⁻¹ and 140000 M⁻¹ s⁻¹, respectively. Further, the binding result in [3] is “binds”. The results for the “EC50 (read off the curve)” value (in the assay with rabbit EL-C2 tag [14]; in assay [15]) were about 40 ng/mL and about 20 ng/mL, respectively. Besides, the values for the Kd (in the assay with Baboon EL-C2 tag [4]; in assay [5]) were 1 nM and 2.8 nM, respectively. Further, the “Neutralizing activity_IC50” value in the assay with Baboon EL-C2 tag [6] was 6.2 nM; in the assay with rabbit EL-C2 tag [7], 69 nM; in assay [8] it was 6.2 nM; in assay [9] it was 6.1 nM.

B3: 8F5 antibody (antibody, IgG2a, V domains shown)
VH: QVTLKESGPGILQPSQTLSLTCSFSGFSLSTSNMGVGWIRQPSGKGLEWLAHIWWNDYKYYNTALKSRLTISKDTSNNQVFLKIASLDTADTATYYCARIGGGTPLDYWGQGTSLTVSS
VL: DIQMAQSPSSLSASLGGKVTITCKASQDIHTYIAWYQHKPGKGPRLLMLYTSTLQPGIPSRFSGSGSGRDYSFSISNLEPEDIATYYCLQYDDLLWTFGGGTKLEIK
On to B3, for which the off-rate (koff) came to 0.00021 s⁻¹ with Baboon EL-C2 tag [1] and 0.00014 s⁻¹ in assay [2]. For the same molecule, the kon (with Baboon EL-C2 tag [1]; in [2]) was 140000 M⁻¹ s⁻¹ throughout. Also, the “EC50 (read off the curve)” value is about 10 ng/mL with Baboon EL-C2 tag [16], about 10 ng/mL in the assay with rabbit EL-C2 tag [17] and about 5 ng/mL in assay [18]. In addition, the Kd with Baboon EL-C2 tag [4] is about 1.5 nM; in assay [5], 1 nM. For the same molecule, the “Neutralizing activity_IC50” value with Baboon EL-C2 tag [6] was 4.8 nM; in the assay with rabbit EL-C2 tag [7], 98 nM; in assay [8], 3 nM.
